The target in experiment [1] is T1, human Bcl-xL (human, UniProt Q07817 1-209). Nature of the experiment: cell-based or functional assay.
The target of experiment [2] is T2, human Bcl-2 (human, UniProt P10415 1-217, limits assumed). The experiment can be described thus: cell-based or functional assay.
Experiment [3] deals with T1, human Bcl-xL. The experiment can be described thus: fluorescence anisotropy (FIG. 1). For orientation: In fluorescence polarisation assays a small probe gives low polarisation when free and higher when bound to something large.
In experiment [4] the target is T2, human Bcl-2. Nature of the experiment: fluorescence anisotropy (FIG. 1).
A further experiment deals with T3, human Bcl-w (human, UniProt Q92843 1-164, limits assumed).
T3 sequence (looked up): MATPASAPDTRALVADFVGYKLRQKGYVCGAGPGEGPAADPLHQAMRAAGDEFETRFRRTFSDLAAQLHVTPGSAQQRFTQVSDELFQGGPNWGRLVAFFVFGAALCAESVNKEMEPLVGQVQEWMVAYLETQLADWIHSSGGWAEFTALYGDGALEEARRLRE
The experiment can be described thus: fluorescence anisotropy (FIG. 1).

A further experiment has as its target T4, human Bfl-1 (human, UniProt Q16548 1-151, limits assumed).
T4 construct: Also used for the Bfl-1 of Pfeiffer cells in the functional rows
T4 sequence (looked up): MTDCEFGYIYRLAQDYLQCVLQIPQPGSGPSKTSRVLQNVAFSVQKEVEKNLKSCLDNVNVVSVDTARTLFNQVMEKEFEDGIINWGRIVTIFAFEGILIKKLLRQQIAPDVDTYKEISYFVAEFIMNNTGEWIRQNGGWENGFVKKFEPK
The experiment can be described thus: fluorescence anisotropy (FIG. 1).

In a further experiment the target is murine Mcl-1 (murine, UniProt P97287 1-331, limits assumed). The experiment can be described thus: cell-based or functional assay.
Sequence of murine Mcl-1 (P97287 whole entry): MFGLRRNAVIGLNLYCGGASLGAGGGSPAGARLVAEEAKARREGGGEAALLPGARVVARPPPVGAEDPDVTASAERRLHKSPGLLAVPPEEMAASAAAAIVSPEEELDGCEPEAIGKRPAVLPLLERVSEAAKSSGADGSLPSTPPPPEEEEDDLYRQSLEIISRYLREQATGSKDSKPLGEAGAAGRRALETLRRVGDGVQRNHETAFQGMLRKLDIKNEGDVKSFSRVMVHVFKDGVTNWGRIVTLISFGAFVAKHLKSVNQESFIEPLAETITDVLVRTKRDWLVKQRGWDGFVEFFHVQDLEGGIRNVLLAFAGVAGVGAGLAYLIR

T1 sequence (Q07817 1-209): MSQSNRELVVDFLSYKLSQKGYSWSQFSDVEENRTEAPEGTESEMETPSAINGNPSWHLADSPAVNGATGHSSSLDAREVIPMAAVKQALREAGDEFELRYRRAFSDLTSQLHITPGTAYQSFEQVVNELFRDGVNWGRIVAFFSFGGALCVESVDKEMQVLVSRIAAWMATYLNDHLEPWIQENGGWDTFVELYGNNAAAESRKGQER
T2 sequence (P10415 1-217 limits assumed): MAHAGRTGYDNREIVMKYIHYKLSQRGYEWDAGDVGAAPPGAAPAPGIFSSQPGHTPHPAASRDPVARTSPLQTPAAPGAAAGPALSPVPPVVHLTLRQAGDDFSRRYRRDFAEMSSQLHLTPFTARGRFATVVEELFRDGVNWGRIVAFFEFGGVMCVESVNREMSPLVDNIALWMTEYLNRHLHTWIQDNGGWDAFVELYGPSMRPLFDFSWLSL

Regarding AELPPEFAAQLRKIGDKVYC [NoxaA BH3 peptide from murine Noxa, unlabeled], the “EC50 of mitochondrial depolarization, BH3 profiling, MDA-MB-231 cells” value with human Bcl-xL [1] is > 100 µM. Besides, the “EC50 of mitochondrial depolarization, BH3 profiling, Bcl-2-dependent line” value with human Bcl-2 [2] was > 100 µM.
On to RPEIWITQELRRIGDEFNAYYAR (Bim BH3 point mutant) [Bim_A2eT], for which the “fold reduction in binding relative to Bim” value with human Bcl-xL [3] was 6 fold; with human Bcl-2 [4] it was > 20 fold; with human Bcl-w, > 20 fold; in the experiment with human Bfl-1, > 20 fold.
As for RPEIWMTQELRRIGDEFNAYYAR [Bim_A2eT_I2dM], the “fold reduction in binding relative to Bim_A2eT” value with human Bcl-xL [3], with human Bcl-2 [4], with human Bcl-w and with human Bfl-1 was ~4 fold in each case.
As for RPEIWITQELRRIGDEINAYYAR [Bim_A2eT_F4aI], the “fold decrease in binding relative to Bim_A2eT” value with human Bcl-xL [3] was determined as 6 fold; with human Bcl-2 [4], 3 fold.
Turning to RPEIWITQELRRLGDEFNAYYAR [Bim_A2eT_I3dL], in the experiment with human Bfl-1, the “fold reduction in binding relative to Bim_A2eT” value is 4 fold.
Regarding RPEIWMTQGLRRLGDEINAYYAR [MS1, unlabeled], the “EC50 of mitochondrial depolarization, BH3 profiling, Mcl-1/Myc 2640 cells” value with murine Mcl-1 came to 0.07 µM.
On to RPEIWLTQHLQRLGDEINAYYAR [MS3 as used in BH3 profiling], for which the “EC50 of mitochondrial depolarization, BH3 profiling, MDA-MB-231 cells” value in the experiment with human Bcl-xL [1] was > 100 µM. In addition, the “EC50 of mitochondrial depolarization, BH3 profiling, Bcl-2-dependent line” value in the experiment with human Bcl-2 [2] was > 100 µM. The “EC50 of mitochondrial depolarization, BH3 profiling, Mcl-1/Myc 2640 cells” value with murine Mcl-1 came out at 0.86 µM.

The values above are taken from patent US20180201658A1 (MIT, published 2018).
